In patent publication US20250043028A1 (Hoffmann-La Roche, published 2025):

Tests used:
[1] = target: T1, human MCSP expressed on tumor cells (Colo-38, WM266-4, MV-3) (human, UniProt Q6UVK1 30-2322); assay: cell-based or functional assay
[2] = target: T2, human CD3 expressed on Jurkat cells (human, UniProt P07766 23-207); assay: flow cytometry on Jurkat cells
T2 construct: CD3 as part of the T cell receptor complex on Jurkat cells; also called huCD3; human CD3 on cells

[3] = target: T1, human MCSP expressed on tumor cells …; assay: flow cytometry on WM266-4 cells
[4] = target: T1, human MCSP expressed on tumor cells …; assay: cell-based or functional assay; remark: listed apart in the source
[5] = target: T3, human CEA expressed on tumor cells (LS-174T, MKN-45, MC38-huCEA) (human, UniProt P06731 35-685); assay: flow cytometry on LS-174T cells; VL/VH exchange; CEA on LS-174T cells
T3 construct: whole, on cells; also called Carcinoembryonic antigen
T3 sequence (looked up): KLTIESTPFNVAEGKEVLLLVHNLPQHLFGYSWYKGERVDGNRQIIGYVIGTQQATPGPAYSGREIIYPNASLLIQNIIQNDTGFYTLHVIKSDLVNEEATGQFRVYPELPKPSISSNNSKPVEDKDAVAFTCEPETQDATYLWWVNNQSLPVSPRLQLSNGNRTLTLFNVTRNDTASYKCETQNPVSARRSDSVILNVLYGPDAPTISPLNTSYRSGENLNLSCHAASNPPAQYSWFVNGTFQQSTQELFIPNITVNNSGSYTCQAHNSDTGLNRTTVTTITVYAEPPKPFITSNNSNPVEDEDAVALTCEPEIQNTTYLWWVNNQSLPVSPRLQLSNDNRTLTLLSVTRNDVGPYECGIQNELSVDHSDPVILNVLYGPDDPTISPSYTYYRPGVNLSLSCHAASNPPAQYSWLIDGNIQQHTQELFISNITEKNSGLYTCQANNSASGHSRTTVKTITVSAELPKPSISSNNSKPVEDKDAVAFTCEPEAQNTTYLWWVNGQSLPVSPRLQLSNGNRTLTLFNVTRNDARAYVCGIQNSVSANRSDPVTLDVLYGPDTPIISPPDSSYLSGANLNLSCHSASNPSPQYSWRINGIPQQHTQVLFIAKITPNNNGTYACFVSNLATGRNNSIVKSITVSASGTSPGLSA
Description: (§1) Binding of the different bispecific constructs to CD3 on Jurkat cells (ATCC #TIB-152), and the respective tumor antigen on target cells, was determined by FACS. Briefly, cells were harvested, counted and checked for viability. 0.15-0.2 million cells per well (in PBS containing 0.1% BSA; 90 μl) were plated in a round-bottom 96-well plate and incubated with the indicated concentration of the bispecific constructs and corresponding IgG controls (10 μl) for 30 min at 4° C. For a better comparison, all constructs and IgG controls were normalized to same molarity. […] Bound constructs were detected using a FACSCantoII (Software FACS Diva). The “(scFv)₂” molecule was detected using a FITC-conjugated anti-His antibody (Lucerna, #RHIS-45F-Z). […] Unless otherwise indicated, cells were fixed with 100 μl/well fixation buffer (BD #554655) for 15 min at 4° C. in the dark, centrifuged for 6 min at 400×g and kept in 200 μl/well PBS containing 0.1% BSA until the samples were measured with FACS CantoII. EC50 values were calculated using the GraphPad Prism software.
(§2) As a control, the equivalent maximum concentration of the corresponding IgGs and the background staining due to the labeled 2ndary antibody (goat anti-human FITC-conjugated AffiniPure F(ab′)₂ Fragment, Fcγ Fragment-specific, Jackson Immuno Research Lab #109-096-098) were assessed as well.

[6] = target: T2, human CD3 expressed on Jurkat cells; assay: flow cytometry on Jurkat cells; VL/VH exchange; CD3 on Jurkat cells
Description: as §1, §2

[7] = target: T3, human CEA expressed on tumor cells …; assay: cell-based or functional assay
[8] = target: T1, human MCSP expressed on tumor cells …; assay: FACS on Colo-38 cells, dose titration
Description: as §1
In another experiment, the purified “2+1 IgG scFab” bispecific construct (SEQ ID NOs 5, 17, 19) and the corresponding anti human MCSP IgG were analyzed by flow cytometry for dose-dependent binding to human MCSP on Colo-38 human melanoma cells, to determine whether the bispecific construct binds to MCSP via one or both of its “arms”.

HuFcγRIIIa-V158-K6H6 = target: T4, HuFcγRIIIa-V158-K6H6 (human, UniProt P08637 17-208); assay: SPR Biacore T100, 25 °C, kinetic fit, one concentration (1000 nM); receptor captured via anti-Penta His
T4 construct: Captured on an anti-Penta His antibody on a CM5 chip; also called human FcγRIIIa-V158; human FcγRIIIa; not shown: K6H6 tag
Description: For analyzing interaction of different Fc-variants with human FcγRIIIa-V158 and murine FcγRIV direct coupling of around 6,500 resonance units (RU) of the anti-Penta His antibody (Qiagen) is performed on a CM5 chip at pH 5.0 using the standard amine coupling kit (Biacore, Freiburg/Germany). HuFcγRIIIa-V158-K6H6 and muFcγRIV-aviHis-biotin are captured for 60 s at 4 and 10 nM respectively.
Constructs with different Fc-mutations are passed through the flow cells for 120 s at a concentration of 1000 nM with a flow rate of 30 μl/min. The dissociation is monitored for 220 s. Bulk refractive index differences are corrected for by subtracting the response obtained in a reference flow cell. Here, the Fc-variants are flown over a surface with immobilized anti-Penta His antibody but on which HBS-EP has been injected rather than HuFcγRIIIa-V158-K6H6 or muFcγRIV-aviHis-biotin. Affinity for human FcγRIIIa-V158 and murine FcγRIV was determined for wild-type Fc using a concentration range from 500-4000 nM.
The steady state response was used to derive the dissociation constant KD by non-linear curve fitting of the Langmuir binding isotherm. Kinetic constants were derived using the Biacore T100 Evaluation Software (vAA, Biacore AB, Uppsala/Sweden), to fit rate equations for 1:1 Langmuir binding by numerical integration.

T1 sequence (Q6UVK1 30-2322): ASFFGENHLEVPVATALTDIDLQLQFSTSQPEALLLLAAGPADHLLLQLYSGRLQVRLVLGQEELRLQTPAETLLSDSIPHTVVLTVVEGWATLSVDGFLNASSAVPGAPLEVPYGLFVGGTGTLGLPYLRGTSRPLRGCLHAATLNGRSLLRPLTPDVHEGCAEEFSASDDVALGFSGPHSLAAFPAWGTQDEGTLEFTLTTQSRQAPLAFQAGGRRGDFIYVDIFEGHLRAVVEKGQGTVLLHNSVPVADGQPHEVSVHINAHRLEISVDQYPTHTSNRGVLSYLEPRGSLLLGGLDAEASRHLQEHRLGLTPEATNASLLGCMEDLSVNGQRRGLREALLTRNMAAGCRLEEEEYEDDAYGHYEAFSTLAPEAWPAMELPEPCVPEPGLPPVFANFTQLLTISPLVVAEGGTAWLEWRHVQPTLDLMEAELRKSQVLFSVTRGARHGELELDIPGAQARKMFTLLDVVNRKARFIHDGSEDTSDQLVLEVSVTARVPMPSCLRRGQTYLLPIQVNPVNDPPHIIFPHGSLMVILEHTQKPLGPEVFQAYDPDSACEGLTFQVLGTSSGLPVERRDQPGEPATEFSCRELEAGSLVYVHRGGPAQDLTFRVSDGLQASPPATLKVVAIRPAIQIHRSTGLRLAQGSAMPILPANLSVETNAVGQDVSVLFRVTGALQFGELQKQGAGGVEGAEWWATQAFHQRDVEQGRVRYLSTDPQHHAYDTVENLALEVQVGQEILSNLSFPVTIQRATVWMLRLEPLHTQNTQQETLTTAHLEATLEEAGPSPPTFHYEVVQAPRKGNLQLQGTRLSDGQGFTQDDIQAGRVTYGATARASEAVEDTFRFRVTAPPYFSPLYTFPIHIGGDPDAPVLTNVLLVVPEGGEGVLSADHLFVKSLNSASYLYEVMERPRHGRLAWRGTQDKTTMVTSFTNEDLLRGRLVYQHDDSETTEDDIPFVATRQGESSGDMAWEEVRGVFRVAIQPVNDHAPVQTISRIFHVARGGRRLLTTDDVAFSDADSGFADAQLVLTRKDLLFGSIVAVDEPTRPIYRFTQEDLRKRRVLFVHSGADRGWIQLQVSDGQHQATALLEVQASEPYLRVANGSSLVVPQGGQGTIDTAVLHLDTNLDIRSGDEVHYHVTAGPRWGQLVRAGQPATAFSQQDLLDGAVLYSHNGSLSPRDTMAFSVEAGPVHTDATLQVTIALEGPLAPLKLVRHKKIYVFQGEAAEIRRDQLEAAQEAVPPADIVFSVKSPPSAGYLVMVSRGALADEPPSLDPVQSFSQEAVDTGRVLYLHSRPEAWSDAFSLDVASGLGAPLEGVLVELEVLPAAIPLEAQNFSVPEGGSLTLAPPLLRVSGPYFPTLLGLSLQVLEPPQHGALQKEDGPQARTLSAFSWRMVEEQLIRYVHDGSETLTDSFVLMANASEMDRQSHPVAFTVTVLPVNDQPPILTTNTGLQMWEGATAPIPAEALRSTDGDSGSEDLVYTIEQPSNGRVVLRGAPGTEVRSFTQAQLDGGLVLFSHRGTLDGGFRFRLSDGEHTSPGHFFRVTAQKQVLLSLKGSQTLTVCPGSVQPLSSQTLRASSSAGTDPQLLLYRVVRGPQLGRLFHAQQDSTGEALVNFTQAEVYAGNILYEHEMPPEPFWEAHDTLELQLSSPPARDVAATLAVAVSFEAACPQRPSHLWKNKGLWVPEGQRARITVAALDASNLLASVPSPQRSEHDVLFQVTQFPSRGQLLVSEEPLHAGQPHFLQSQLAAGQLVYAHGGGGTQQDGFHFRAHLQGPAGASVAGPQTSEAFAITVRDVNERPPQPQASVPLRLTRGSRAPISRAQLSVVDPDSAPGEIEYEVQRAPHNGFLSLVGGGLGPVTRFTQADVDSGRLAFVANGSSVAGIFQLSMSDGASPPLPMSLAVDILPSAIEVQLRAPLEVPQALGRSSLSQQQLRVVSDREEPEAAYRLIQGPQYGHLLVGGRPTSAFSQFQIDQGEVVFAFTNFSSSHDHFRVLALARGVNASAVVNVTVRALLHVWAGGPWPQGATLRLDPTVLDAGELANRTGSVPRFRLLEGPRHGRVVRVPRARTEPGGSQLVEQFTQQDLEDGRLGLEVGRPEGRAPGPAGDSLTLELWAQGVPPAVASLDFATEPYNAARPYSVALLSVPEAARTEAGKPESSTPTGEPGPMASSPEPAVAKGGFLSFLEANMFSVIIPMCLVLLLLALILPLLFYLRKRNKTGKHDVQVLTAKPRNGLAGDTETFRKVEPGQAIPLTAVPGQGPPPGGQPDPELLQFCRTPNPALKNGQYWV
T2 sequence (P07766 23-207 limits assumed): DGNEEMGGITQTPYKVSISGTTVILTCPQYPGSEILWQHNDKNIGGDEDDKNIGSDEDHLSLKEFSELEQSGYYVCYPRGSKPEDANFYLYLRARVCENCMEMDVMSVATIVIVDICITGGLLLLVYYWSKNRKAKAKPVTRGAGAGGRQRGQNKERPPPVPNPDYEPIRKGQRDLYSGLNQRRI
T4 sequence (P08637 17-208 F176V): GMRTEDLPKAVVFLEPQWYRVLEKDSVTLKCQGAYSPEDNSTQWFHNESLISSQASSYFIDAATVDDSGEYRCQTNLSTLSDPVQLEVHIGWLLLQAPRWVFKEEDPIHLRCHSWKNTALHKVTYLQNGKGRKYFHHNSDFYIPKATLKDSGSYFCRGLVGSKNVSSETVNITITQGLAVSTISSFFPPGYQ

B1: “2+1 IgG Crossfab”; VH/VL exchange (LC007/V9) (anti-MCSP/anti-huCD3) (bispecific antibody)
chain 1: not shown
chain 2: DIVLTQSPSSLSASLGDRVTISCSASQGIRNYLNWYQQRPDGTVKLLIYYTSSLHSGVPSRFSGSGSGTDYSLTISNLEPEDIATYYCQQYSKLPWTFGGGTKLEIKRTVAAPSVFIFPPSDEQLKSGTASVVCLLNNFYPREAKVQWKVDNALQSGNSQESVTEQDSKDSTYSLSSTLTLSKADYEKHKVYACEVTHQGLSSPVTKSFNRGEC
chain 3: DIQMTQSPSSLSASVGDRVTITCRASQDIRNYLNWYQQKPGKAPKLLIYYTSRLESGVPSRFSGSGSGTDYTLTISSLQPEDFATYYCQQGNTLPWTFGQGTKVEIKSSASTKGPSVFPLAPSSKSTSGGTAALGCLVKDYFPEPVTVSWNSGALTSGVHTFPAVLQSSGLYSLSSVVTVPSSSLGTQTYICNVNHKPSNTKVDKKVEPKSCGGGGSGGGGSEVQLQESGPGLVKPSQSLSLTCSVTGYSITSGYYWNWIRQFPGNKLEWMGYITYDGSNNYNPSLKNRISITRDTSKNQFFLKLNSVTTEDTATYYCADFDYWGQGTTLTVSSASTKGPSVFPLAPSSKSTSGGTAALGCLVKDYFPEPVTVSWNSGALTSGVHTFPAVLQSSGLYSLSSVVTVPSSSLGTQTYICNVNHKPSNTKVDKKVEPKSCDKTHTCPPCPAPEAAGGPSVFLFPPKPKDTLMISRTPEVTCVVVDVSHEDPEVKFNWYVDGVEVHNAKTKPREEQYNSTYRVVSVLTVLHQDWLNGKEYKCKVSNKALGAPIEKTISKAKGQPREPQVCTLPPSRDELTKNQVSLSCAVKGFYPSDIAVEWESNGQPENNYKTTPPVLDSDGSFFLVSKLTVDKSRWQQGNVFSCSVMHEALHNHYTQKSLSLSPGK
chain 4: EVQLVESGGGLVQPGGSLRLSCAASGYSFTGYTMNWVRQAPGKGLEWVALINPYKGVSTYNQKFKDRFTISVDKSKNTAYLQMNSLRAEDTAVYYCARSGYYGDSDWYFDVWGQGTLVTVSSASVAAPSVFIFPPSDEQLKSGTASVVCLLNNFYPREAKVQWKVDNALQSGNSQESVTEQDSKDSTYSLSSTLTLSKADYEKHKVYACEVTHQGLSSPVTKSFNRGEC
notes: vectors transfected 1:2:1:1 (second heavy chain : light chain : first heavy chain-heavy chain Crossfab : light chain Crossfab); also called 2+1 IgG Crossfab (V9)
For B1, the “EC50 [pM] of T cell-mediated killing (LDH release) of MV-3 cells, human PBMCs, E:T 10:1, about 24 h” value [1] was 10 pM, the “EC50 [pM] of T cell-mediated killing (LDH release) of WM266-4 cells, human PBMCs, E:T 10:1, about 24 h” value [1] was 12.4 pM and the EC50 [2] was 1.66 nM. For the same binder, the EC50 [3] was 0.95 nM, the “EC50 of killing (LDH release) of MV-3 cells, human PBMCs, E:T 10:1, 21 h” value [4] was 0.0092 nM and the “EC50 of killing (LDH release) of WM266-4 cells, human PBMCs, E:T 10:1, 21 h” value [4] was 0.0331 nM.

B2: “2+1 IgG Crossfab, inverted”; VL/VH exchange (CH1A1A/V9) (anti-CEA/anti-huCD3) (bispecific antibody)
chain 1: EVQLVESGGGLVQPGGSLRLSCAASGYSFTGYTMNWVRQAPGKGLEWVALINPYKGVSTYNQKFKDRFTISVDKSKNTAYLQMNSLRAEDTAVYYCARSGYYGDSDWYFDVWGQGTLVTVSSASVAAPSVFIFPPSDEQLKSGTASVVCLLNNFYPREAKVQWKVDNALQSGNSQESVTEQDSKDSTYSLSSTLTLSKADYEKHKVYACEVTHQGLSSPVTKSFNRGEC
chain 2: not shown
chain 3: QVQLVQSGAEVKKPGASVKVSCKASGYTFTEFGMNWVRQAPGQGLEWMGWINTKTGEATYVEEFKGRVTFTTDTSTSTAYMELRSLRSDDTAVYYCARWDFAYYVEAMDYWGQGTTVTVSSASTKGPSVFPLAPSSKSTSGGTAALGCLVKDYFPEPVTVSWNSGALTSGVHTFPAVLQSSGLYSLSSVVTVPSSSLGTQTYICNVNHKPSNTKVDKKVEPKSCDKTHTCPPCPAPEAAGGPSVFLFPPKPKDTLMISRTPEVTCVVVDVSHEDPEVKFNWYVDGVEVHNAKTKPREEQYNSTYRVVSVLTVLHQDWLNGKEYKCKVSNKALGAPIEKTISKAKGQPREPQVCTLPPSRDELTKNQVSLSCAVKGFYPSDIAVEWESNGQPENNYKTTPPVLDSDGSFFLVSKLTVDKSRWQQGNVFSCSVMHEALHNHYTQKSLSLSPGK
chain 4: DIQMTQSPSSLSASVGDRVTITCKASAAVGTYVAWYQQKPGKAPKLLIYSASYRKRGVPSRFSGSGSGTDFTLTISSLQPEDFATYYCHQYYTYPLFTFGQGTKLEIKRTVAAPSVFIFPPSDEQLKSGTASVVCLLNNFYPREAKVQWKVDNALQSGNSQESVTEQDSKDSTYSLSSTLTLSKADYEKHKVYACEVTHQGLSSPVTKSFNRGEC
notes: also called VL/VH-exchange construct
With B2 the EC50 [5] was 9.3 nM, the EC50 [6] was 4.6 nM and the “EC50 of killing (LDH release) of LS-174T cells, human PBMCs, E:T 10:1, 28 h” value [7] was 0.955 nM. For the same binder, the “EC50 of killing (LDH release) of MKN-45 cells, human PBMCs, E:T 10:1, 28 h” value [7] was 0.243 nM.

B3: “2+1 IgG scFab, LALA” (anti-MCSP/anti-huCD3) (bispecific antibody)
chain 1: DIVLTQSPSSLSASLGDRVTISCSASQGIRNYLNWYQQRPDGTVKLLIYYTSSLHSGVPSRFSGSGSGTDYSLTISNLEPEDIATYYCQQYSKLPWTFGGGTKLEIKRTVAAPSVFIFPPSDEQLKSGTASVVCLLNNFYPREAKVQWKVDNALQSGNSQESVTEQDSKDSTYSLSSTLTLSKADYEKHKVYACEVTHQGLSSPVTKSFNRGEC
chain 2: not shown
chain 3: EVQLQESGPGLVKPSQSLSLTCSVTGYSITSGYYWNWIRQFPGNKLEWMGYITYDGSNNYNPSLKNRISITRDTSKNQFFLKLNSVTTEDTATYYCADFDYWGQGTTLTVSSASTKGPSVFPLAPSSKSTSGGTAALGCLVKDYFPEPVTVSWNSGALTSGVHTFPAVLQSSGLYSLSSVVTVPSSSLGTQTYICNVNHKPSNTKVDKKVEPKSCDKTHTCPPCPAPEAAGGPSVFLFPPKPKDTLMISRTPEVTCVVVDVSHEDPEVKFNWYVDGVEVHNAKTKPREEQYNSTYRVVSVLTVLHQDWLNGKEYKCKVSNKALPAPIEKTISKAKGQPREPQVCTLPPSRDELTKNQVSLSCAVKGFYPSDIAVEWESNGQPENNYKTTPPVLDSDGSFFLVSKLTVDKSRWQQGNVFSCSVMHEALHNHYTQKSLSLSPGK
notes: also called Fc-LALA; copies: 2 + 1 + 1
For B3, the “EC50 (read off the curve)” value [8] was roughly 0.06 nM and the Kd (HuFcγRIIIa-V158-K6H6) was 2130 nM.
